B1: Zyxin (Homo sapiens), Q15942 (parent)
chain: MAAPRPSPAISVSVSAPAFYAPQKKFGPVVAPKPKVNPFRPGDSEPPPAPGAQRAQMGRVGEIPPPPPEDFPLPPPPLAGDGDDAEGALGGAFPPPPPPIEESFPPAPLEEEIFPSPPPPPEEEGGPEAPIPPPPQPREKVSSIDLEIDSLSSLLDDMTKNDPFKARVSSGYVPPPVATPFSSKSSTKPAAGGTAPLPPWKSPSSSQPLPQVPAPAQSQTQFHVQPQPQPKPQVQLHVQSQTQPVSLANTQPRGPPASSPAPAPKFSPVTPKFTPVASKFSPGAPGGSGSQPNQKLGHPEALSAGTGSPQPPSFTYAQQREKPRVQEKQHPVPPPAQNQNQVRSPGAPGPLTLKEVEELEQLTQQLMQDMEHPQRQNVAVNELCGRCHQPLARAQPAVRALGQLFHIACFTCHQCAQQLQGQQFYSLEGAPYCEGCYTDTLEKCNTCGEPITDRMLRATGKAYHPHCFTCVVCARPLEGTSFIVDQANRPHCVPDYHKQYAPRCSVCSEPIMPEPGRDETVRVVALDKNFHMKCYKCEDCGKPLSIEADDNGCFPLDGHVLCRKCHTARAQT
partner: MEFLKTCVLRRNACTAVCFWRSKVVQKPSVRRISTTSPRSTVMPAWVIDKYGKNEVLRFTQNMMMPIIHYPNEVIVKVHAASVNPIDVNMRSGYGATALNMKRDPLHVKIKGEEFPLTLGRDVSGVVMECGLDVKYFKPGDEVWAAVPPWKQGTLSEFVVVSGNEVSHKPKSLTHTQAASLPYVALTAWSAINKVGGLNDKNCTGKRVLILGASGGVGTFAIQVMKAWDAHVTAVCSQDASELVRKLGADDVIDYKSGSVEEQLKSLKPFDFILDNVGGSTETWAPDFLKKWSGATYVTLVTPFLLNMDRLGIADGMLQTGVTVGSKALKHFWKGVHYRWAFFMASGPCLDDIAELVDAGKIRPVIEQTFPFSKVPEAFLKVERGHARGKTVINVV
B2: Multifunctional procollagen lysine hydroxylase and glycosyltransferase LH3 (Homo sapiens), O60568 (parent)
chain: MTSSGPGPRFLLLLPLLLPPAASASDRPRGRDPVNPEKLLVITVATAETEGYLRFLRSAEFFNYTVRTLGLGEEWRGGDVARTVGGGQKVRWLKKEMEKYADREDMIIMFVDSYDVILAGSPTELLKKFVQSGSRLLFSAESFCWPEWGLAEQYPEVGTGKRFLNSGGFIGFATTIHQIVRQWKYKDDDDDQLFYTRLYLDPGLREKLSLNLDHKSRIFQNLNGALDEVVLKFDRNRVRIRNVAYDTLPIVVHGNGPTKLQLNYLGNYVPNGWTPEGGCGFCNQDRRTLPGGQPPPRVFLAVFVEQPTPFLPRFLQRLLLLDYPPDRVTLFLHNNEVFHEPHIADSWPQLQDHFSAVKLVGPEEALSPGEARDMAMDLCRQDPECEFYFSLDADAVLTNLQTLRILIEENRKVIAPMLSRHGKLWSNFWGALSPDEYYARSEDYVELVQRKRVGVWNVPYISQAYVIRGDTLRMELPQRDVFSGSDTDPDMAFCKSFRDKGIFLHLSNQHEFGRLLATSRYDTEHLHPDLWQIFDNPVDWKEQYIHENYSRALEGEGIVEQPCPDVYWFPLLSEQMCDELVAEMEHYGQWSGGRHEDSRLAGGYENVPTVDIHMKQVGYEDQWLQLLRTYVGPMTESLFPGYHTKARAVMNFVVRYRPDEQPSLRPHHDSSTFTLNVALNHKGLDYEGGGCRFLRYDCVISSPRKGWALLHPGRLTHYHEGLPTTWGTRYIMVSFVDP
partner: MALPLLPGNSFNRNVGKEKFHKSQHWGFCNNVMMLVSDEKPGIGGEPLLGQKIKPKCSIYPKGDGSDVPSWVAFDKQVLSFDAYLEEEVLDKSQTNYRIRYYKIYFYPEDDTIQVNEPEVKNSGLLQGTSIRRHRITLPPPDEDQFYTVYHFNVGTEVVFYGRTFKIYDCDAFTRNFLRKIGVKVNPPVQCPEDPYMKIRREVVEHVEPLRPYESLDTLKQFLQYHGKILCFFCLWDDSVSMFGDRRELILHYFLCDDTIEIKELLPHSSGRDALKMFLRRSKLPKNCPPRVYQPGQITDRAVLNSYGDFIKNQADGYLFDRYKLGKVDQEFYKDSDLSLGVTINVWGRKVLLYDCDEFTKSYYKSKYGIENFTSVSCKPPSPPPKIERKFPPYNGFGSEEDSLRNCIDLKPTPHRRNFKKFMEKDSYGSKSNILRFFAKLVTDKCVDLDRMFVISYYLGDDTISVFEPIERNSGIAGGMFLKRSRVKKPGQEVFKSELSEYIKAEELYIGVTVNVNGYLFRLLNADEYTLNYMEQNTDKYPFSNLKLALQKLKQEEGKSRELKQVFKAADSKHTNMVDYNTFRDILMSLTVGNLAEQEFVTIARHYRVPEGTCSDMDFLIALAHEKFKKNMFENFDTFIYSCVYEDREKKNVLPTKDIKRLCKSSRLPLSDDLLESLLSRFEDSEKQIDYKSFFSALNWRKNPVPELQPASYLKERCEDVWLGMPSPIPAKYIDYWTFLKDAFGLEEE
B3: Zinc finger protein 786 (Homo sapiens), Q8N393 (parent)
chain: MAEPPRLPLTFEDVAIYFSEQEWQDLEAWQKELYKHVMRSNYETLVSLDDGLPKPELISWIEHGGEPFRKWRESQKSGNIICSSVDMHFDPGFEEQLFWGSQQAMNSGKTKSHFQLDPESQCSFGSFVSFRPDQGITLGSPQRHDARAPPPLACGPSESTLKEGIPGPRNLDLPGLWDVPAWESTQHPWPVCGESCWENNHLVMHQRGHSKDRTRRAWEKFNKRAETQMPWSSPRVQRHFRCGVCGKSFRRKLCLLRHLAAHTGRGPFRNADGEMCFRHELTHPSHRLPQQGEKPAQCTPCGKRSLPVDSTQARRCQHSREGPASWREGRGASSSVHSGQKPGSRLPQEGNSHQEGDTEALQHGAEGPCSCSECGERSPMSARLASPCRAHTGEKPFQCAHCTKRFRLRRLLQVHQHAHGGERPFSCRKCGKGFAKQCKLTEHIRVHSGEKPFRCAKCGRNFRQRGQLLRHQRLHTDEKPFQCPECGLSFRLESMLRAHRLRHGGERPFSCSECGRGFTHQCKLREHLRVHSGERPFQCLKCDKRFRLKGILKAHQHTHSKERPFSCGECGKGFTRQSKLTEHLRVHSGERPFQCPECNRSFRLKGQLLSHQRLHTGERPFQCPECDKRYRVKADMKAHQLLHSGEMPFSCECGKGFVKHSKLIEHIRTHTGEKPFQCPKCDKSFRLKAQLLSHQGLHTGERPFHCPECDKNFRERGHMLRHQRIHRPERPFACGDCGKGFIYKSKLAEHIRVHTKSCPAPNELDIKKRLSQLFAMIEADWS

Results on three variants are retold here after IntAct's records for PubMed 29892012.

The variants in one assay derive from B1. The note with it: with rt4i1_human RTN4IP1, Q8WWV3.
Regarding MAAPRPSPAISVSVSAPAFYAPQKKFGPVVAPKPKVNPFRPGDSEPPPAPGAQRAQMGRVGEIPPPPPEDFPLPPPPLAGDGDDAEGALGGAFPPPPPPIEESFPPAPLEEEIFPSPPPPPEEEGGPEAPIPPPPQPREKVSSIDLEIDSLSSLLDDMTKNDPFKAGVSSGYVPPPVATPFSSKSSTKPAAGGTAPLPPWKSPSSSQPLPQVPAPAQSQTQFHVQPQPQPKPQVQLHVQSQTQPVSLANTQPRGPPASSPAPAPKFSPVTPKFTPVASKFSPGAPGGSGSQPNQKLGHPEALSAGTGSPQPPSFTYAQQREKPRVQEKQHPVPPPAQNQNQVRSPGAPGPLTLKEVEELEQLTQQLMQDMEHPQRQNVAVNELCGRCHQPLARAQPAVRALGQLFHIACFTCHQCAQQLQGQQFYSLEGAPYCEGCYTDTLEKCNTCGEPITDRMLRATGKAYHPHCFTCVVCARPLEGTSFIVDQANRPHCVPDYHKQYAPRCSVCSEPIMPEPGRDETVRVVALDKNFHMKCYKCEDCGKPLSIEADDNGCFPLDGHVLCRKCHTARAQT [R167G], the “effect of a mutation on the interaction” value is reported as “with no effect”.

Another assay covers variants of B2. The note with it: with efhc2_human EFHC2, Q5JST6.
R235Q: the “effect of a mutation on the interaction” value was “with no effect”.

The next assay covers variants of B3. Conditions: with kr103_human KRTAP10-3, P60369.
Sequence of kr103_human KRTAP10-3, P60369 (P60369 whole entry): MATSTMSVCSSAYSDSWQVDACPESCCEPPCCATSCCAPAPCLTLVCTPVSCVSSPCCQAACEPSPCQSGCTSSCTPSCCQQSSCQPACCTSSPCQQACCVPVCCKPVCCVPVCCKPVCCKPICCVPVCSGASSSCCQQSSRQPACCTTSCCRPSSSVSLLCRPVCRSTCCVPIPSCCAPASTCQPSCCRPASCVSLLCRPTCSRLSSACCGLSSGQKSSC
For the variant S112R, the “effect of a mutation on the interaction” value is “with no effect”.
